These results are taken from the supplement of paper PMC9170038.

In the data set the test system is K4 kissing-loop RNA reporter. As to the kind of experiment: apparent KD of K4 kissing-loop reporter; higher = weaker reporter binding. Particulars: Eterna round: R107. The protocol: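 RNA-MaP round R107: designed RNA switches with theophylline, tryptophan, arginine or FMN aptamers are transcribed on-chip within common flanks. They are titrated with a labelled K4 kissing-loop RNA reporter in RNA-MaP buffer (100 mM Tris pH 7.5, 80 mM KCl, 4 mM MgCl2), without ligand or with the indicated ligand. Median apparent KD per design.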

Setting [1] is: input ligand: theophylline 20 uM.
[2] abbreviates: input ligand: tryptophan 2.4 mM.
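Note: bound reporter read as fluorescence of individual clusters on recovered sequencing chips by microscopy, with normalized cluster intensities fitted with a binding model.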

As to “GGUAGCGCCAGAGAUACCAGUCAUAUCGCUCUGGAGUGAUGUUCCGGAACGUGCGGAGAAGACCCUUGGCAGCUCAUGACGGUAU [Exclusion Theophylline B GF 3]”, the “apparent KD of K4 kissing-loop reporter” value by setting is: (input ligand: FMN 200 uM) 219 nM; (input ligand: arginine 13.2 mM) 175 nM; (input ligand: none) 189 nM; under setting [1], 227 nM; under setting [2], 171 nM.

For “GGUAGGGCAGCUGCGGAAACGCAGCAUAUCGAGGAUAUCGGGAAACCGAGAAGGCGAGUAGUGAUGUUACUGGUUUAGCCCUACC”, the “apparent KD of K4 kissing-loop reporter” value (input ligand: FMN 200 uM) was found to be 444 nM; the “apparent KD of K4 kissing-loop reporter” value (input ligand: arginine 13.2 mM) turned out to be 167 nM; the “apparent KD of K4 kissing-loop reporter” value (input ligand: none) was 191 nM; the “apparent KD of K4 kissing-loop reporter” value under setting [1] was 196 nM; the “apparent KD of K4 kissing-loop reporter” value under setting [2] turned out to be 173 nM.

As for “GGUGCUGUCUGUGCCGCCCUCCUCGUUCCUCGAGGACCGGUACGGCCGCCACUCGAGUGAUGUUCGGGUAGCGAUCCCUGCUAGC [Bdazzled - #17 Exc. Tryptophan A]”, the “apparent KD of K4 kissing-loop reporter” value runs as follows: (input ligand: FMN 200 uM) 221 nM; (input ligand: arginine 13.2 mM) 176 nM; (input ligand: none) 207 nM; under setting [1], 191 nM; under setting [2], 204 nM.

With “GGUUUCUGAAGUGAUGUUUCAGGAUGACACAAGGAUAUAUAUGGCGAUAGAAGGUGUGCGUCGCAUGACGAACGACGUCAGCUUC [theeternabot_exclusion_KL_FMN_A_37]”, the “apparent KD of K4 kissing-loop reporter” value (input ligand: FMN 200 uM) is 94.8 nM; the “apparent KD of K4 kissing-loop reporter” value (input ligand: arginine 13.2 mM) is 80.9 nM; the “apparent KD of K4 kissing-loop reporter” value (input ligand: none) stood at 120 nM; the “apparent KD of K4 kissing-loop reporter” value under setting [1] is 123 nM; the “apparent KD of K4 kissing-loop reporter” value under setting [2] was 93 nM.

With “GUACCUUGGAAACAAGGACCGCUAACCGAAGGAGCGCGUGAAAACGCAGGUAGGUCGCGGUAGCGGAGUGAUGUUCCGCGAGAGG [Excluson Arginine A GF 14]”, the “apparent KD of K4 kissing-loop reporter” value was determined as 166 nM (input ligand: FMN 200 uM); 235 nM (input ligand: arginine 13.2 mM); 196 nM (input ligand: none); 268 nM under setting [1]; 165 nM under setting [2].

On to “GUAGACGUACCUUCAGUGAUGUUGAAGGAUACCAGAUGUUAUCACAUCCCUUGGCAGCCUUGGGAUAACAGUGAGUCGGAAUAUG [Essoaran]”, for which the “apparent KD of K4 kissing-loop reporter” value by setting is: (input ligand: FMN 200 uM) 170 nM; (input ligand: arginine 13.2 mM) 142 nM; (input ligand: none) 184 nM; under setting [1], 159 nM; under setting [2], 168 nM.

Consider “GUAGAUAGGCAACAUCCCUAGUCUACAGACUAGGAUAUCAGGAAACUGAGAAGGAGUCUCCUUGCAGUGAUGUUGCAAGAAUAAU [[F]''-[K]'-[F]'-[F1]-[F2]-[K1]-[K2]_Design5]”, for which the “apparent KD of K4 kissing-loop reporter” value (input ligand: FMN 200 uM) was 185 nM; the “apparent KD of K4 kissing-loop reporter” value (input ligand: arginine 13.2 mM) was 181 nM; the “apparent KD of K4 kissing-loop reporter” value (input ligand: none) is 200 nM; the “apparent KD of K4 kissing-loop reporter” value under setting [1] came to 83.6 nM; the “apparent KD of K4 kissing-loop reporter” value under setting [2] is 161 nM.

“GUAGAUAGGCUACAUCUCUAGUCUAUAGACUAGGAUAUCAGGAAACUGAGAAGGAGUCUCAUUGGAGUGAUGUUCCAAGAAUAAU [KL-SSFMN-A15]”: the “apparent KD of K4 kissing-loop reporter” value (input ligand: FMN 200 uM) amounted to 120 nM; the “apparent KD of K4 kissing-loop reporter” value (input ligand: arginine 13.2 mM) worked out at 115 nM; the “apparent KD of K4 kissing-loop reporter” value (input ligand: none) turned out to be 114 nM; the “apparent KD of K4 kissing-loop reporter” value under setting [1] was 133 nM; the “apparent KD of K4 kissing-loop reporter” value under setting [2] turned out to be 85.1 nM.

In the case of “GUAGGAUGAGGAGGAGGAUGAAUUACUGAAGGAGCGCAGAGAAAUGCAGGUAGGUCGCGGUAAAGAAGUAUAGUGAUGUUAUAUC [#09 K4 Arginine A Same State]”, the “apparent KD of K4 kissing-loop reporter” value was 775 nM (input ligand: FMN 200 uM); 308 nM (input ligand: arginine 13.2 mM); 657 nM (input ligand: none); 526 nM under setting [1]; 598 nM under setting [2].

For “GUAUCGCUAGGAGGAUAUUUCAAAUAAUAAAUAAAUGGAUAUACGGAGUGAUGUUCCGAUUUACGGAAAGAAGGCCUAGUGAUAC [FMN B 1]”, the “apparent KD of K4 kissing-loop reporter” value is 136 nM (input ligand: FMN 200 uM); 179 nM (input ligand: arginine 13.2 mM); 194 nM (input ligand: none); 190 nM under setting [1]; 171 nM under setting [2].

For “GUAUCGCUAGGAGGAUAUUUCAAAUAAUAAAUAAAUGGAUAUUCGGAGUGAUGUUCCGAUUUACGGAAAGAAGGCCUAGUGAUAC [FMN B 2]”, the “apparent KD of K4 kissing-loop reporter” value by setting is: (input ligand: FMN 200 uM) 135 nM; (input ligand: arginine 13.2 mM) 143 nM; (input ligand: none) 157 nM; under setting [1], 137 nM; under setting [2], 150 nM.

As to “GUCGGGACUCGAGGAUAUCAGUGGAGGCCAGUGAUGUUGGCCGUCCCGGUAGUUAAAAUUUUACCCUGAGAAGGCGAUUUCUGUC [Veceinusqu]”, the “apparent KD of K4 kissing-loop reporter” value runs as follows: (input ligand: FMN 200 uM) 142 nM; (input ligand: arginine 13.2 mM) 128 nM; (input ligand: none) 133 nM; under setting [1], 131 nM; under setting [2], 138 nM.

For the sequence “GUGCAGUGAUGUUGCACGAGGAAAGACGAUACCAGCCGUAAAUAAGGCCCUUGGCAGCGUGGGCUAGCAUAAAGUACGCUAGUCU [Mara]”, the “apparent KD of K4 kissing-loop reporter” value (input ligand: FMN 200 uM) was determined as 111 nM; the “apparent KD of K4 kissing-loop reporter” value (input ligand: arginine 13.2 mM) is 115 nM; the “apparent KD of K4 kissing-loop reporter” value (input ligand: none) came to 109 nM; the “apparent KD of K4 kissing-loop reporter” value under setting [1] is 94 nM; the “apparent KD of K4 kissing-loop reporter” value under setting [2] was 97.1 nM.

For the sequence “GUGCGGCUAGUGAUGUUGGUUGCGUGGGAAGGAGCGCAGAAACAUGCAGGUAGGUCGCCCACACCUCUGAAAGAAGGUUAAUUCA [Biistian]”, the “apparent KD of K4 kissing-loop reporter” value reads like this: (input ligand: FMN 200 uM) 218 nM; (input ligand: arginine 13.2 mM) 140 nM; (input ligand: none) 203 nM; under setting [1], 231 nM; under setting [2], 207 nM.

As to “GUGCGGUGGAGGUUACCGCUACUCUGAGAAGGAGCGCAGAUGACUGCAGGUAGGUCGCUUAGAGCUUGCAGUGAUGUUGCAAGUU [Anquatbiat]”, the “apparent KD of K4 kissing-loop reporter” value is, setting by setting: (input ligand: FMN 200 uM) 199 nM; (input ligand: arginine 13.2 mM) 147 nM; (input ligand: none) 159 nM; under setting [1], 132 nM; under setting [2], 177 nM.

Take “GUUACGCAUGGAAGGAGCGCAGGCUCAACAAGUAGCUCAGUGAUGUUGAGCAUAUUAAUUCUGCAGGUAGGUCGCCAUGUGUAAC [Ex Arginine B K4 26]”: the “apparent KD of K4 kissing-loop reporter” value was determined as 787 nM (input ligand: FMN 200 uM); 471 nM (input ligand: arginine 13.2 mM); 612 nM (input ligand: none); 802 nM under setting [1]; 646 nM under setting [2].

“GUUACGCAUGGAAGGAGCGCUCUCAUACUUAAUAACACAGUGAUGUUGUGAAUUUGUAUAAAGCAGGUAGGUCGCCAUGUGUAAC [Ex Arginine B K4 7]”: the “apparent KD of K4 kissing-loop reporter” value runs as follows: (input ligand: FMN 200 uM) 417 nM; (input ligand: arginine 13.2 mM) 323 nM; (input ligand: none) 424 nM; under setting [1], 379 nM; under setting [2], 346 nM.

On to “GUUACGCAUGGAAGGAGCGCUCUCCGGUUGAUCGACACAGUGAUGUUGUGGUUCUACCGUAAGCAGGUAGGUCGCCAUGUGUAAC [Ex Arginine B K4 14]”, for which the “apparent KD of K4 kissing-loop reporter” value turned out to be 730 nM (input ligand: FMN 200 uM); 449 nM (input ligand: arginine 13.2 mM); 936 nM (input ligand: none); 966 nM under setting [1]; 828 nM under setting [2].

Take “UAACUUGCAGUGAUGUUGCAAGAACUGGAUACCAGCAUGGAAACAUGCCCUUGGCAGCCAGAAGCUGGCUGCUUGUAAUGUCAGC [Design6]”: the “apparent KD of K4 kissing-loop reporter” value runs as follows: (input ligand: FMN 200 uM) 162 nM; (input ligand: arginine 13.2 mM) 158 nM; (input ligand: none) 170 nM; under setting [1], 131 nM; under setting [2], 138 nM.

With “UAAGAAUAACAUGCAGUGAUGUUGCAUGUACGAGGACCGGUACGGCCGCCACUCGAGUCCUCGAACAUGCACCGAGGAAUAACAA [(H,1)-(H,2)-(Trp1)-(Trp2)-(T)'-(H)'-(T)'']”, the “apparent KD of K4 kissing-loop reporter” value reads like this: (input ligand: FMN 200 uM) 201 nM; (input ligand: arginine 13.2 mM) 118 nM; (input ligand: none) 116 nM; under setting [1], 161 nM; under setting [2], 402 nM.

Consider “UAAGAAUAAGUAGCAGUGAUGUUGCUACUGCGAGGACCGGUACGGCCGCCACUCGAGUCCUCGAAGCGUCACUGAACGAGGAAUA [whbob_SS_Tryp_A_m13]”, for which the “apparent KD of K4 kissing-loop reporter” value turned out to be 319 nM (input ligand: FMN 200 uM); 283 nM (input ligand: arginine 13.2 mM); 328 nM (input ligand: none); 433 nM under setting [1]; 187 nM under setting [2].
